According to article PMC5456370, “Bacterial co-expression of human Tau protein with protein kinase A and 14-3-3 for studies of 14-3-3/phospho-Tau interaction” (PLoS ONE, 2017):

B1: full-length human 14-3-3γ (natural protein, UniProt P61981 1-247, looked up)
chain: MVDREQLVQKARLAEQAERYDDMAAAMKNVTELNEPLSNEERNLLSVAYKNVVGARRSSWRVISSIEQKTSADGNEKKIEMVRAYREKIEKELEAVCQDVLSLLDNYLIKNCSETQYESKVFYLKMKGDYYRYLAEVATGEKRATVVESSEKAYSEAHEISKEHMQPTHPIRLGLALNYSVFYYEIQNAPEQACHLAKTAFDDAIAELDTLNEDSYKDSTLIMQLLRDNLTLWTSDQQDDDGGEGNN
notes: human 14-3-3 protein gamma, Uniprot P61981, full length
B2: untagged human 14-3-3σ devoid of the C-terminal flexible peptide (residues 232-248) (domain or fragment, UniProt P31947 1-231, looked up)
chain: MERASLIQKAKLAEQAERYEDMAAFMKGAVEKGEELSCEERNLLSVAYKNVVGGQRAAWRVLSSIEQKSNEEGSEEKGPEVREYREKVETELQGVCDTVLGLLDSHLIKEAGDAESRVFYLKMKGDYYRYLAEVATGDDKKRIIDSARSAYQEAMDISKKEMPPTNPIRLGLALNFSVFHYEIANSPEEAISLAKTTFDEAMADLHTLSEDSYKDSTLIMQLLRDNLTLWT
notes: human 14-3-3 protein sigma, Uniprot P31947, residues 1-231 out of 248; also called 14-3-3σΔC; σΔC; source: purified (ammonium sulfate fractionation, anion-exchange and gel-filtration chromatography); also E. coli BL21(DE3), co-expressed with Tau and PKA, in lysate

Target: the molecule itself
Assay: native gel or EMSA; purified 14-3-3 isoforms (14 μM per monomer) without or with PKA (2 μM) in 50 mM Hepes-NaOH pH 7.3, 10 mM NaCl, 4 mM MgCl2, 60 μM ATP, 2 h at 30°C; non-denaturing 15% gel, pH 8.6; dimer and monomer regions of the gel

Row | Protein | binding result
1 | B1 | binds
2 | B2 | binds
